From EP4786494A1 (Nanjing Leads Biolabs Co., Ltd., dated 2026)
Where a chain is given by its changes, count along the chain named.

B1: antibody F3F8 (murine chimeric anti-FGFR2 antibody) (antibody, human IgG1, kappa, V domains shown)
VH: QVTLKESGPGILQSSQTLSLTCSFSGFSLSTSGMGVSWIRQPSGKGLEWLAHIYWDNDKRYNPSLKSRLTISKDTSRNQVFLKITSVDTADTATYYCTRSDSSGSFDYWGQGTTLTVSS
VL: DIQMTQTTSSLSASLGDRVTISCRASQDISNYLNWYQQKPDGTVKFLIYYTSTLHSGVPSRFSGSGSGTDYSLTISNLEQEDIATYFCQQGNTLPWTFGGGTKLEIKR
B2: antibody E3A1 (murine chimeric anti-FGFR2 antibody) (antibody, human IgG1, kappa, V domains shown)
VH: B1 VH with S30T, N57D, T98A, R99G, S100C
VL: B1 VL with S22T, F46L, T51R, T53R, T69P, D70E
B3: antibody D12D8 (murine chimeric anti-FGFR2 antibody) (antibody, human IgG1, kappa, V domains shown)
VH: QVQLQQSGAELARPGASVKLSCKASGYTFTNYGISWVKQRTGQGLEWIGEIYPRSGNTYYNEKFKGKATLTADKSSSTAYMELRSLTSEDSAVYFCARGDYSNSDYWGQGTTLTVSS
VL: B1 VL with S30T, N31D, Y32H, F46L, T53R, W96R
B4: antibody G11B8 (murine chimeric anti-FGFR2 antibody) (antibody, human IgG1, kappa, V domains shown)
VH: EVQLQQSGPELVKPGASVKIPCKASGYTFTDYNMDWVKQSHGKSLEWIGDINPKNGETFYNQKFKGKATLTVDRSSNTAYMELRSLTSEDTAVYFCAKRDLNWYFDYWGQGTTLTVSS
VL: DIQMTQSSSYLSVSLGGRVTITCKASDHINNWLAWYQQKPGNAPRLLISGATSLETGVPSRFSGSGSGKDYTLSITSLQTEDVATYYCQQYWSTPWTFGGGTKLEIKR
B5: antibody H3F7-a (murine chimeric anti-FGFR2 antibody) (antibody, human IgG1, kappa, V domains shown)
VH: B4 VH with N77S
VL: B4 VL
B6: antibody A1B2 (murine chimeric anti-FGFR2 antibody) (antibody, human IgG1, kappa, V domains shown)
VH: EVQLQQSGAELVRPGASVKLSCTASGFNIKDYYMHWVKQRPEQGLEWIGRIDPEDGDTEYAPKFQGKATMTADTSSNTAYLQLSSLTSEDTAVYYCTTYYYVSTYEDYWGQGTTLTVSS
VL: QIVLTQSPAIMSASLGEEITLTCSASSSVSHMHWYQQKSGTSPKLLIYSTSNLASGVPSRFSGSGSGTFYSLTISSVEAEDAADYYCHHWSSWTFGGGTKLEIKR
B7: antibody A5H12 (murine chimeric anti-FGFR2 antibody) (antibody, human IgG1, kappa, V domains shown)
VH: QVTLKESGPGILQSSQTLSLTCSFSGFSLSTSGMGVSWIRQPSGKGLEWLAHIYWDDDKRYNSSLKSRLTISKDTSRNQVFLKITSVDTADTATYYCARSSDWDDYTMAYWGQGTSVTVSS
VL: DIVLTQSPASLAVSLGQRATISCRASESIDDFGISFMHWYQQKPGQPPKLLIYRASNLESGIPARFSGSGSRADFTLTINPVETDDVATYYCQQSNKDPPTFGAGTNLELKR
B8: antibody F6B6 (murine chimeric anti-FGFR2 antibody) (antibody, human IgG1, kappa, V domains shown)
VH: QVQLKQSGPGLVQPSQSLSITCTVSGFSLTNYGVHWVRQSPGKGLEWLGVIWSDGSTDYDAAFISRLSISTDNSKSQVFFKMNSLQAADTAIYYCARKGDYDYDNYAMDYWGQGTSVTVSS
VL: DVVITQSPATLSVTPGDSVSLSCRASQSISNNLHWYQQKSHESPRLLIKYASQSISGIPSRFSGSGSGTDFTLSINSVETEDFGMYFCQQSNSWPLTFGAGTKLELKR
B9: bemarituzumab (antibody, human IgG1, kappa, V domains shown)
VH: QVQLVQSGAEVKKPGSSVKVSCKASGYIFTTYNVHWVRQAPGQGLEWIGSIYPDNGDTSYNQNFKGRATITADKSTSTAYMELSSLRSEDTAVYYCARGDFAYWGQGTLVTVSS
VL: DIQMTQSPSSLSASVGDRVTITCKASQGVSNDVAWYQQKPGKAPKLLIYSASYRYTGVPSRFSGSGSGTDFTFTISSLQPEDIATYYCQQHSTTPYTFGQGTKLEIKR
B10: mouse antibody F3F8 (antibody, V domains shown)
VH: B1 VH
VL: DIQMTQTTSSLSASLGDRVTISCRASQDISNYLNWYQQKPDGTVKFLIYYTSTLHSGVPSRFSGSGSGTDYSLTISNLEQEDIATYFCQQGNTLPWTFGGGTKLEIK
notes: Antibody as produced by the hybridoma
B11: mouse antibody E3A1 (antibody, V domains shown)
VH: B1 VH with S30T, N57D, T98A, R99G, S100C
VL: B10 VL with S22T, F46L, T51R, T53R, T69P, D70E
notes: as for B10
B12: mouse antibody G11B8 (antibody, V domains shown)
VH: B4 VH
VL: DIQMTQSSSYLSVSLGGRVTITCKASDHINNWLAWYQQKPGNAPRLLISGATSLETGVPSRFSGSGSGKDYTLSITSLQTEDVATYYCQQYWSTPWTFGGGTKLEIK
notes: as for B10
B13: mouse antibody H3F7-a (antibody, V domains shown)
VH: B4 VH with N77S
VL: B12 VL
notes: as for B10
B14: mouse antibody D12D8 (antibody, V domains shown)
VH: B3 VH
VL: B10 VL with S30T, N31D, Y32H, F46L, T53R, W96R
notes: as for B10
B15: mouse antibody F6B6 (antibody, V domains shown)
VH: B8 VH
VL: DVVITQSPATLSVTPGDSVSLSCRASQSISNNLHWYQQKSHESPRLLIKYASQSISGIPSRFSGSGSGTDFTLSINSVETEDFGMYFCQQSNSWPLTFGAGTKLELK
notes: as for B10
B16: mouse antibody A1B2 (antibody, V domains shown)
VH: B6 VH
VL: QIVLTQSPAIMSASLGEEITLTCSASSSVSHMHWYQQKSGTSPKLLIYSTSNLASGVPSRFSGSGSGTFYSLTISSVEAEDAADYYCHHWSSWTFGGGTKLEIK
notes: as for B10
B17: mouse antibody A5H12 (antibody, V domains shown)
VH: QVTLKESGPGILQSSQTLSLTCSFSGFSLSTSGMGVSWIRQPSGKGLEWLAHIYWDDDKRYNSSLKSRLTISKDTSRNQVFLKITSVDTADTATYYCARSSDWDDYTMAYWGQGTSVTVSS
VL: DIVLTQSPASLAVSLGQRATISCRASESIDDFGISFMHWYQQKPGQPPKLLIYRASNLESGIPARFSGSGSRADFTLTINPVETDDVATYYCQQSNKDPPTFGAGTNLELK
notes: as for B10

What follows are binders tested against T1, human FGFR1 protein (ACRO Biosystems, Cat. No. FG1-H5223) (human, UniProt P11362-14 22-285) (assay: ELISA, FGFR1 coated).
T1 construct: Bought recombinant protein; construct not described
T1 sequence (looked up): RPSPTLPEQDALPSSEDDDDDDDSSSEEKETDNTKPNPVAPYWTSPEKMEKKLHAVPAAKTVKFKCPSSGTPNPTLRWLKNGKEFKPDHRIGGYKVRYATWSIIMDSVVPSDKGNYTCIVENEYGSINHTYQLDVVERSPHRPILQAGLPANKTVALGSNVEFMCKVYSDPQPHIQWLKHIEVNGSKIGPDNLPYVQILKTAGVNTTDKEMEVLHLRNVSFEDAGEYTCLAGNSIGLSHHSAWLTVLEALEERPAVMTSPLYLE

Row | Binder | binding result
1 | B1 | no binding
2 | B2 | no binding
3 | B3 | no binding
4 | B4 | no binding
5 | B5 | no binding
6 | B6 | no binding
7 | B7 | no binding
8 | B8 | no binding
9 | B9 | no binding

What follows are binders tested against T2, human FGFR3 protein (Sino Biological, Cat. No. 16486-H08H) (human, UniProt P22607-2 23-377) (assay: ELISA, FGFR3 coated).
T2 construct: Bought recombinant protein; construct not described
T2 sequence (looked up): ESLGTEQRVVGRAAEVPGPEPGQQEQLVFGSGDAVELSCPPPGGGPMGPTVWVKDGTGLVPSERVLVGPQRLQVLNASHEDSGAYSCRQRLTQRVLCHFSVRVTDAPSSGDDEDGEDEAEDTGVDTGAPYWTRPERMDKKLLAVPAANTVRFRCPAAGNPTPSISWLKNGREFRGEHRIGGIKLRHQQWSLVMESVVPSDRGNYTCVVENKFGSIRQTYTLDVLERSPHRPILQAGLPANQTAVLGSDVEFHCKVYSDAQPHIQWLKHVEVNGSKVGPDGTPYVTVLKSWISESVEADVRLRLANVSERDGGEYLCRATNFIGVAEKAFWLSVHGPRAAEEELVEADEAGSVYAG

Row | Binder | binding result
10 | B1 | no binding
11 | B3 | no binding
12 | B4 | no binding
13 | B5 | no binding
14 | B6 | no binding
15 | B8 | no binding
16 | B9 | no binding

What follows are binders tested against T3, human FGFR4 protein (Sino Biological, Cat. No. 10538-H08H) (human, UniProt P22455 22-369) (assay: ELISA, FGFR4 coated).
T3 construct: Bought recombinant protein; construct not described

Row | Binder | binding result
17 | B1 | no binding
18 | B2 | no binding
19 | B3 | no binding
20 | B4 | no binding
21 | B5 | no binding
22 | B6 | no binding
23 | B7 | no binding
24 | B8 | no binding
25 | B9 | no binding

Target: T4, human FGFR2-his protein (huFGFR2-his) (human)
T4 construct: Extracellular region of human FGFR2 (NP_001138385.1) with a 6xHis tag; also called human FGFR2 extracellular protein
T4 chain: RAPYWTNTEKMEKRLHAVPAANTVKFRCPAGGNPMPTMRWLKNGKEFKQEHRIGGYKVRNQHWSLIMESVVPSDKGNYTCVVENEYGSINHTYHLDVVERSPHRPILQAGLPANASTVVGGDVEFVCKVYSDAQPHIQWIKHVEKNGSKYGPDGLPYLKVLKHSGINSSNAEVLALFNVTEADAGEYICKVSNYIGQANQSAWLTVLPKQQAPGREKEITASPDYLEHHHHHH
Assay: ELISA screen of hybridoma subclones on human FGFR2-his

Row | Binder | binding result
26 | B10 | binds
27 | B11 | binds
28 | B12 | binds
29 | B13 | binds
30 | B14 | binds
31 | B15 | binds
32 | B16 | binds
33 | B17 | binds
